The source of these data is patent US20260217833A1 (APTEVO RESEARCH AND DEVELOPMENT, published 2026).

Changes are numbered by the printed parent chain.

First the molecules themselves.
B1: CD4001071 (bispecific antibody)
Fc-Knob x PDL_5F9: EPKSSDKTHTCPPCPAPPAAAPSVFLFPPKPKDTLMISRTPEVTCVVVDVSHEDPEVKFNWYVDGVEVHNAKTKPREEQYNSTYRVVSVLTVLHQDWLNGKEYKCAVSNKALPAPIEKTISKAKGQPREPQVYTLPPSRDELTKNQVSLWCLVKGFYPSDIAVEWESNGQPENNYKTTPPVLDSDGSFFLYSKLTVDKSRWQQGNVFSCSVMHEALHNHYTQKSLSLSPGGGGSPSEVQLVESGGGLVKPGGSLRLSCAASGFTFSDYGMAWVRQAPGKGLEWVAFITSLAYIIYYADSVKGRFTISRDNAKNSLYLQMNSLRAEDTAVYYCARNYGSSPYYFDYWGQGTLVTVSSGGGGSGGGGSGGGGSGGGGSDIQMTQSPSSLSASVGDRVTITCRASQDINKFLSWYQQKPGKAPKLLIHYTSSLQPGVPSRFSGSGSGTDFTLTISSLQPEDFATYYCLQYDNLYTFGQGTKLEIK
CD40_5B9 x Fc-Hole x PDL_5F9: DVVMTQTPLSLPVSLGDQASISCRSSQSLVHYNGYTYLHWYLQKPGQSPKLLIYKVSNRFSGVPDRFSGSGSGTDFTLKISRVEAEDLGVYFCSQTTHVPLTFGAGTKLELRGGGGSGGGGSGGGGSGGGGSEVMLVESGGGLVKPGGSLKLSCAASGFTFSSYAMSWVRQTPERRLEWVASISSAGTYIYYPDSVKGRFTISRDNAKNILYLQMNSLRSEDTAMYYCARHGNGYDPLWYFDVWGAGTTVTVSSEPKSSDKTHTCPPCPAPPAAAPSVFLFPPKPKDTLMISRTPEVTCVVVDVSHEDPEVKFNWYVDGVEVHNAKTKPREEQYNSTYRVVSVLTVLHQDWLNGKEYKCAVSNKALPAPIEKTISKAKGQPREPQVYTLPPSRDELTKNQVSLSCAVKGFYPSDIAVEWESNGQPENNYKTTPPVLDSDGSFFLVSKLTVDKSRWQQGNVFSCSVMHEALHNRFTQKSLSLSPGGGGSPSEVQLVESGGGLVKPGGSLRLSCAASGFTFSDYGMAWVRQAPGKGLEWVAFITSLAYIIYYADSVKGRFTISRDNAKNSLYLQMNSLRAEDTAVYYCARNYGSSPYYFDYWGQGTLVTVSSGGGGSGGGGSGGGGSGGGGSDIQMTQSPSSLSASVGDRVTITCRASQDINKFLSWYQQKPGKAPKLLIHYTSSLQPGVPSRFSGSGSGTDFTLTISSLQPEDFATYYCLQYDNLYTFGQGTKLEIK
B2: CD4001072 (bispecific antibody)
Fc-Knob x PDL_5F9: B1 Fc-Knob x PDL_5F9
CD40_1D5 x Fc-Hole x PDL_5F9: DIVMSQSPSSLAVSVGEKVTMSCKSSQSLLFSVNQKNYLAWYQQKPGQSPKLLIYWASTRESGVPDRFTGSGSGTDFTLTIGSVKAEDLAVYYCQHYYSYPWTFGGGTKLEIKGGGGSGGGGSGGGGSGGGGSQVQLQQSGAELMNPGASVRISCKATGYTFSTSWIEWIKQRPGHGLEWIGEILPGSGSTNYNEKFKGKATFTADTSSNTAYMQLSSLTFEDSAVYYCARGDDGSYVRWYFDVWGAGTTVTVSSEPKSSDKTHTCPPCPAPPAAAPSVFLFPPKPKDTLMISRTPEVTCVVVDVSHEDPEVKFNWYVDGVEVHNAKTKPREEQYNSTYRVVSVLTVLHQDWLNGKEYKCAVSNKALPAPIEKTISKAKGQPREPQVYTLPPSRDELTKNQVSLSCAVKGFYPSDIAVEWESNGQPENNYKTTPPVLDSDGSFFLVSKLTVDKSRWQQGNVFSCSVMHEALHNRFTQKSLSLSPGGGGSPSEVQLVESGGGLVKPGGSLRLSCAASGFTFSDYGMAWVRQAPGKGLEWVAFITSLAYIIYYADSVKGRFTISRDNAKNSLYLQMNSLRAEDTAVYYCARNYGSSPYYFDYWGQGTLVTVSSGGGGSGGGGSGGGGSGGGGSDIQMTQSPSSLSASVGDRVTITCRASQDINKFLSWYQQKPGKAPKLLIHYTSSLQPGVPSRFSGSGSGTDFTLTISSLQPEDFATYYCLQYDNLYTFGQGTKLEIK
B3: CD4001069 (bispecific antibody)
PDL_5F9 x Fc-Knob: EVQLVESGGGLVKPGGSLRLSCAASGFTFSDYGMAWVRQAPGKGLEWVAFITSLAYIIYYADSVKGRFTISRDNAKNSLYLQMNSLRAEDTAVYYCARNYGSSPYYFDYWGQGTLVTVSSGGGGSGGGGSGGGGSGGGGSDIQMTQSPSSLSASVGDRVTITCRASQDINKFLSWYQQKPGKAPKLLIHYTSSLQPGVPSRFSGSGSGTDFTLTISSLQPEDFATYYCLQYDNLYTFGQGTKLEIKEPKSSDKTHTCPPCPAPPAAAPSVFLFPPKPKDTLMISRTPEVTCVVVDVSHEDPEVKFNWYVDGVEVHNAKTKPREEQYNSTYRVVSVLTVLHQDWLNGKEYKCAVSNKALPAPIEKTISKAKGQPREPQVYTLPPSRDELTKNQVSLWCLVKGFYPSDIAVEWESNGQPENNYKTTPPVLDSDGSFFLYSKLTVDKSRWQQGNVFSCSVMHEALHNHYTQKSLSLSPG
CD40_1D5 x Fc-Hole: DIVMSQSPSSLAVSVGEKVTMSCKSSQSLLFSVNQKNYLAWYQQKPGQSPKLLIYWASTRESGVPDRFTGSGSGTDFTLTIGSVKAEDLAVYYCQHYYSYPWTFGGGTKLEIKGGGGSGGGGSGGGGSGGGGSQVQLQQSGAELMNPGASVRISCKATGYTFSTSWIEWIKQRPGHGLEWIGEILPGSGSTNYNEKFKGKATFTADTSSNTAYMQLSSLTFEDSAVYYCARGDDGSYVRWYFDVWGAGTTVTVSSEPKSSDKTHTCPPCPAPPAAAPSVFLFPPKPKDTLMISRTPEVTCVVVDVSHEDPEVKFNWYVDGVEVHNAKTKPREEQYNSTYRVVSVLTVLHQDWLNGKEYKCAVSNKALPAPIEKTISKAKGQPREPQVYTLPPSRDELTKNQVSLSCAVKGFYPSDIAVEWESNGQPENNYKTTPPVLDSDGSFFLVSKLTVDKSRWQQGNVFSCSVMHEALHNRFTQKSLSLSPG
B4: CD4001075 (bispecific antibody)
CD40_1D5 x Fc-Knob: B3 CD40_1D5 x Fc-Hole with S405W, A407L, V446Y, R474H, F475Y
CD40_1D5 x Fc-Hole x PDL_5F9: B2 CD40_1D5 x Fc-Hole x PDL_5F9

The target in this assay is T1, Human PD-L1 full-length (human, UniProt Q9NZQ7 19-290).
T1 construct: also called PDL01021; CHOK1SV/huPDL1
T1 sequence (Q9NZQ7 19-290): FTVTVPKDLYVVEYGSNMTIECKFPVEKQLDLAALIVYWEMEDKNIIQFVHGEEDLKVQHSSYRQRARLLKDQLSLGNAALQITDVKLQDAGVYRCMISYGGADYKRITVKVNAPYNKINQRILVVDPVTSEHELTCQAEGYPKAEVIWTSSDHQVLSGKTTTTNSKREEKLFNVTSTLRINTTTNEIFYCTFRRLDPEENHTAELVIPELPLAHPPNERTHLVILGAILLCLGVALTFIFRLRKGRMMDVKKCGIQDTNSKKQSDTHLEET
The assay is described as follows: flow cytometry, CHOK1SV/human PD-L1 cells.
Turning to B1, the binding result is given as “binds”. For B2, the binding result is listed as “binds”. In the case of B3 it was “binds”; in that of B4, “binds”.
